Laboratory results: patent US20160311919A1 (CELLDEX THERAPEUTICS, published 2016)
Several values for one entry are separate records, joined by “and”; a condition that tells them apart may be missing. Identical values can stand only once.

Experiments:
[1] = target: T1, CD3 on purified human T cells (human, UniProt P07766 23-207); assay: flow cytometry on purified human T cells, mouse anti-FLAG mAb then PE goat anti-mouse Ig F(ab')2
T1 construct: whole, on cells; also called CD3/TCR complex
Description: (Jackson ImmunoResearch, West Grove, Pa.) Ten thousand events were collected and analyzed on a FACSCalibur instrument (Becton Dickinson, Mountain View, Calif.).
To verify binding of the bi-scFv to human CD3 molecules, we used purified human T cells.

[2] = target: T2, GPNMB (CG56972), native full-length protein on the cell surface or in cell lysates (human, UniProt Q14956 23-492); assay: cell-based or functional assay
T2 sequence: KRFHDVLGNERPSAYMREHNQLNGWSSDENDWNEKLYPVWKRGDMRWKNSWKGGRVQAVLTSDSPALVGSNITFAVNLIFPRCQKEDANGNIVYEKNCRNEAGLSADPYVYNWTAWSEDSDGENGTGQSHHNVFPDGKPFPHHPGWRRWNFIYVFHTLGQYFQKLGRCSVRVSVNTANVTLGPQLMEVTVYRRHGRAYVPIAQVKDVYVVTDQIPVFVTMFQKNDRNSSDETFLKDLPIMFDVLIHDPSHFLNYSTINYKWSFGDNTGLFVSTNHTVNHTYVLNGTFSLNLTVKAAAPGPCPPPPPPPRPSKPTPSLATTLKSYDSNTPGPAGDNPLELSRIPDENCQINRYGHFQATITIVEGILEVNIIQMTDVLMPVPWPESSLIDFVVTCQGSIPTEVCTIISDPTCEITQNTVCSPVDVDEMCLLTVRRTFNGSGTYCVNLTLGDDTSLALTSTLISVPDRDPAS

[3] = target: T2, GPNMB (CG56972), native full-length …; assay: FACS, UACC-62 cells, Ab 1 ug/mL
Protocol: Cells were washed twice with PBS (Ca and Mg free), incubated with Versene at 37° C. until cells detached, counted and aliquoted at 1 million cells per assay tube. Cells were then washed twice and resuspended in ice-cold FACS buffer (0.01M HEPES, 0.15M NaCl, 0.1% NaN₃ and 4% FBS). Primary antibody at 1 μg/mL was added to the cells. Cells were incubated on ice for 30 min, washed 2-3 times and resuspended in 1 mL of ice-cold FACS buffer. R-PE-conjugated goat anti-human antibody (Jackson ImmunoResearch Laboratory) at 1:100 dilution was added and cells were incubated on ice for 30 min. After washing 3 times with 1 mL of ice-cold FACS buffer, cells were fixed with 0.5-1 mL of 1% formaldehyde in PBS and analyzed by flow cytometry.

[4] = target: T2, GPNMB (CG56972), native full-length …; assay: cell-based or functional assay; remark: listed apart in the source
[5] = target: T2, GPNMB (CG56972), native full-length …; assay: cell-based or functional assay; remark: listed apart in the source
[6] = target: T2, GPNMB (CG56972), native full-length …; assay: cell-based or functional assay; remark: listed apart in the source
[7] = target: T2, GPNMB (CG56972), native full-length …; assay: cell-based or functional assay; remark: listed apart in the source
[8] = target: T2, GPNMB (CG56972), native full-length …; assay: cell-based or functional assay; remark: listed apart in the source

T1 sequence (P07766 23-207): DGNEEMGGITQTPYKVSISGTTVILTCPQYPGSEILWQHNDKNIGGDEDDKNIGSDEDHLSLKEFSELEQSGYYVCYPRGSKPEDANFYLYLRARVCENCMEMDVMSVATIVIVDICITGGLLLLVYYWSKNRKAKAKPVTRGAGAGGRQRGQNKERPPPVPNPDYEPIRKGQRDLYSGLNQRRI

B1: CR011 scFv (VL-L4-VH) Flag (scFv)
scFv: EIVMTQSPATLSVSPGERATLSCRASQSVDNNLVWYQQKPGQAPRLLIYGASTRATGIPARFSGSGSGTEFTLTISSLQSEDFAVYYCQQYNNWPPWTFGQGTKVEIKLSADDAKKDAAKKDDAKKDDAKKDLQVQLQESGPGLVKPSQTLSLTCTVSGGSISSFNYYWSWIRHHPGKGLEWIGYIYYSGSTYSNPSLKSRVTISVDTSKNQFSLTLSSVTAADTAVYYCARGYNWNYFDYWGQGTLVTVSSASDYKDDDDK
notes: C-terminal Flag tag is within the entry; also called CR011 single chain antibody; CR011 scFv monomer
[1]
  binding result: no binding (tested: 5 µg/sample/100 µl)

B2: Mab2.10.2 (antibody, human IgG2, V domains shown)
VH: QLVESGGGVVQPGRSLRLSCAASGFAFSSYGMHWVRQAPGKGLEWVAVISYDGNNKYYADSVKGRFTISRDNSKNTLYLQMNSLRAEDTAVYYCARDLVVRGIRGYYYYFGMDVWGQGTTVTVSS
VL: not shown
notes: Human IgG2 kappa from XenoMouse XMG2; also called CR011.2.10.2
[2]
  killing of UACC-62 cells with saporin-conjugated secondary antibody, clonogenic, Ab 50 ng/mL: > 70%
[3]
  Geo Mean Ratio (relative to pK16): 2.6

B3: Mab2.22.1 (antibody, human IgG2, V domains shown)
VH: QVQLEQSGPGLVKPSQNLSLTCTVSGGSISSGGYFWSWIRQHPGKGLEWIGYIYYSGNTYYNPSLKSRVTISVDTSKNQFSLKLSSVTAADTAVYYCARDYYYDTSGFSYRYDWYYGMDVWGQGTTVTVSS
VL: DIQLTQSPSSLSASVGDRVTITCRASQGIRNDLGWYQQKPGKAPKRLIYAASSLQNGVPSRFSGSGSGTEFTLTISSLQPEDFATYYCLQHNTYPAFGQGTKVEIKR
notes: Human IgG2 kappa from XenoMouse XMG2; also called CR011.2.22.1
[2]
  killing of UACC-62 cells with saporin-conjugated secondary antibody, clonogenic, Ab 50 ng/mL: > 70%
[3]
  Geo Mean Ratio (relative to pK16): 4.46

B4: Mab1.2.2 (antibody, human IgG2, V domains shown)
VH: ITLKESGPTLVKPTQTLTLTCTFSGFSLSAGGVGVGWIRQPPGKALEWLALIYWNDDKRYSPSLRSRLTITKDTSKNQVVLTITNMDPVDTATYYCAHSHYDYDWGSYFDYWGQGTLVTVSS
VL: DIVMTQTPLSLPVTPGEPASISCRSSQSLLDSDDGNTYLDWYLQKPGQSPQLLIYTLSYRASGVPDRFSGSGSGTDFTLNISRVEAEDVGVYYCMQRIEFPITFGQGTRLEIKR
notes: Human IgG2 kappa from XenoMouse XMG2; also called CR011.1.2.2
[3]
  Geo Mean Ratio (relative to pK16): 1.24

B5: CR011-vcMMAE (Mab1.15.1 conjugated to monomethylauristatin E through a valine-citrulline linker) (other)
heavy: QVQLQESGPGLVKPSQTLSLTCTVSGGSISSFNYYWSWIRHHPGKGLEWIGYIYYSGSTYSNPSLKSRVTISVDTSKNQFSLTLSSVTAADTAVYYCARGYNWNYFDYWGQGTLVTVSSASTKGPSVFPLAPCSRSTSESTAALGCLVKDYFPEPVTVSWNSGALTSGVHTFPAVLQSSGLYSLSSVVTVPSSNFGTQTYTCNVDHKPSNTKVDKTVERKCCVECPPCPAPPVAGPSVFLFPPKPKDTLMISRTPEVTCVVVDVSHEDPEVQFNWYVDGVEVHNAKTKPREEQFNSTFRVVSVLTVVHQDWLNGKEYKCKVSNKGLPAPIEKTISKTKGQPREPQVYTLPPSREEMTKNQVSLTCLVKGFYPSDIAVEWESNGQPENNYKTTPPMLDSDGSFFLYSKLTVDKSRWQQGNVFSCSVMHEALHNHYTQKSLSLSPGK
VL: not shown
modifications: vcMMAE on cysteines of reduced disulfides, about 4 drugs per antibody (3.5-4.2); positions not given
[4]
  IC50, clonogenic assay with 1.15.1-AE, G361 cells: 1050 ng/mL and 6500 pM
  IC50, clonogenic assay with 1.15.1-AE, RPMI-7951 cells: 972 ng/mL and 6000 pM
  IC50, clonogenic assay with 1.15.1-AE, SK-Mel 2 cells: 111 ng/mL and 750 pM
  IC50, clonogenic assay with 1.15.1-AE, SK-Mel 5 cells: 237 ng/mL and 1600 pM
  IC50, clonogenic assay with 1.15.1-AE, UACC-62 cells: 697 ng/mL and 4300 pM
  IC50, clonogenic assay with 1.15.1-AE, UACC-257 cells: 825 ng/mL and 5500 pM
  IC50, clonogenic assay with 1.15.1-AE, WM-266-4 cells: 345 ng/mL and 2300 pM
[5]
  IC50, clonogenic assay with 1.15.1-AE, SR cells: 296 ng/mL and 2000 pM
  IC50, clonogenic assay with 1.15.1-AE, THP-1 cells: 207 ng/mL and 1400 pM
  IC50, clonogenic assay with 1.15.1-AE, U937 cells: 340 ng/mL and 2400 pM
[6]
  CR011-AE IC50, clonogenic assay, SF-268 cells (poor expression): > 1.5 mg/L
  CR011-AE IC50, clonogenic assay, SF-539 cells: 1.03 mg/L
  CR011-AE IC50, clonogenic assay, SK-MEL-2 cells: 0.303 mg/L
  CR011-AE IC50, clonogenic assay, SNB-78 cells: 0.449 mg/L
  CR011-AE IC50, clonogenic assay, U-118-MG cells: 1.25 mg/L
  CR011-AE IC50, clonogenic assay, XF-498 cells: 0.216 mg/L
[7]
  IC50 of colony formation (% of control), clonogenic assay after 96 h treatment of HEK293 cells transfected with GPNMB; the same conjugate on empty-vector cells prints >1000: 0.3 mg/L
[8]
  IC50 of colony formation (% of control), clonogenic assay, SK-Mel-2 cells with GPNMB knocked down by GPNMB siRNA: 1 mg/L
  IC50 of colony formation (% of control), clonogenic assay, control-siRNA-transfected SK-Mel-2 cells: 0.22 mg/L
  IC50 of colony formation (% of control), clonogenic assay, mock-transfected SK-Mel-2 cells: 0.33 mg/L

B6: Mab1.15.1 (CR011), fully human IgG2 (antibody)
heavy: QVQLQESGPGLVKPSQTLSLTCTVSGGSISSFNYYWSWIRHHPGKGLEWIGYIYYSGSTYSNPSLKSRVTISVDTSKNQFSLTLSSVTAADTAVYYCARGYNWNYFDYWGQGTLVTVSSASTKGPSVFPLAPCSRSTSESTAALGCLVKDYFPEPVTVSWNSGALTSGVHTFPAVLQSSGLYSLSSVVTVPSSNFGTQTYTCNVDHKPSNTKVDKTVERKCCVECPPCPAPPVAGPSVFLFPPKPKDTLMISRTPEVTCVVVDVSHEDPEVQFNWYVDGVEVHNAKTKPREEQFNSTFRVVSVLTVVHQDWLNGKEYKCKVSNKGLPAPIEKTISKTKGQPREPQVYTLPPSREEMTKNQVSLTCLVKGFYPSDIAVEWESNGQPENNYKTTPPMLDSDGSFFLYSKLTVDKSRWQQGNVFSCSVMHEALHNHYTQKSLSLSPGK
VL: not shown
[2]
  killing of UACC-62 cells with saporin-conjugated secondary antibody, clonogenic, Ab 50 ng/mL: > 70%
